These results are taken from patent publication US20070197431A1 (published 2007).

Assay [1] has as its target T1, human EGF receptor (human, UniProt P00533 25-1210). The assay is described as follows: co-immunoprecipitation from co-infected Sf9 cells, anti-FLAG blot. From the text: (§1) Baculovirus encoding Nrdp1 tagged at its amino terminus with FLAG epitope was created as described previously (Guy, P. M., et al., Proc. Natl. Acad. Sci USA., 91:8132-36 ((1994)). Baculoviruses encoding human EGF receptor, human ErbB2, bovine ErbB3 or human ErbB4 have been described previously (Carraway, K. L., III, et al., Nature, 387:512-16 (1997)). For co-immunoprecipitation experiments Sf9 cells were infected with receptor viruses and co-infected either wild type or Nrdp1 baculovirus. 48 hours after infection cleared NP-40 lysates were immunoprecipitated with receptor antibodies and blotted with antibodies directed to receptors or FLAG epitope as described above.

In assay [2] the target is T2, human ErbB2 (human, UniProt P04626 23-1255). The description is as above.
From the text: as §1

Assay [3] concerns the target T1, human EGF receptor. As to the kind of experiment: GST pull-down from Sf9 lysates, receptor blot. How it is done:
(§2) For pull-down experiments receptors were expressed in Sf9 insect cells, cleared lysates were incubated for 1.5 hours with 3 μg immobilized GST or GST-32, and beads were washed as previously described (Carraway, K. L., III, et al., Nature, 387:512-16 (1997)). MDA-MB-453 cells were treated for 5 minutes without or with 10 nM NRG1β, lysed as previously described (Sweeney, C., et al., J. Biol. Chem., 275:19803-07 (2000)), and cleared lysates were incubated with GST and GST-32 as above. Precipitated proteins were resolved by 8% SDS-PAGE, transferred to nitrocellulose and visualized by blotting with anti-phosphotyrosine (RC20, Transduction Laboratories) or anti-receptor antibodies.
(§3) To confirm the specificity of the interaction we employed a GST fusion of clone 32 in receptor pull-down experiments. A GST fusion of clone 32 was used instead of full-length Nrdp1 because we observed that GST-Nrdp1 is insoluble in bacteria. We have expressed each of the ErbB family members in Sf9 cells (Carraway, K. L., III, et al., Nature, 387:512-16 (1997)), incubated cleared lysates with immobilized GST or GST-32, and analyzed associated receptors by blotting precipitates with receptor-specific antibodies. We again observed that clone 32 is capable of physically interacting with ErbB3 and ErbB4, but not EGF receptor or ErbB2.

Assay [4] has as its target T2, human ErbB2. The assay is described as follows: GST pull-down from Sf9 lysates, receptor blot. How it is done:
as §2, §3

B1: Nrdp1 tagged at its amino terminus with FLAG epitope (baculovirus, Sf9 insect cells) (other)
chain: DYKDDDDKMGYDVTRFQGDVDEDLICPICSGVLEEPVQAPHCEHAFCNACITQWFSQQQTCPVDRSVVTVAHLRPVPRIMRNMLSKLQIACDNAVFGCSAVVRLDNLMSHLSDCEHNPKRPVTCEQGCGLEMPKDELPNHNCIKHLRSVVQQQQTRIAELEKTSAEHKHQLAEQKRDIQLLKAYMRAIRSVNPNLQNLEETIEYNEILEWVNSLQPARVTRWGGMISTPDAVLQAVIKRSLVESGCPASIVNELIENAHERSWPQGLATLETRQMNRRYYENYVAKRIPGKQAVVVMACENQHMGDDMVQEPGLVMIFAHGVEEI
notes: Construct used for the Sf9 co-immunoprecipitations; also called FLAG-Nrdp1; neuregulin receptor degradation protein-1
Consider B1, for which the binding result with human EGF receptor [1] and in the assay with human ErbB2 [2] was “no binding” throughout.

B2: GST fusion protein of clone 32 encompassing Nrdp1 residues I135 to I317 (other)
chain: IKHLRSVVQQQQTRIAELEKTSAEHKHQLAEQKRDIQLLKAYMRAIRSVNPNLQNLEETIEYNEILEWVNSLQPARVTRWGGMISTPDAVLQAVIKRSLVESGCPASIVNELIENAHERSWPQGLATLETRQMNRRYYENYVAKRIPGKQAVVVMACENQHMGDDMVQEPGLVMIFAHGVEEI
notes: Expressed in bacteria and immobilized on beads (3 ug) for the pull-downs; also called GST-32; GST fusion of clone 32; not shown: glutathione S-transferase encoded by the pGEX vector
On to B2, for which the binding result with human EGF receptor [3] and with human ErbB2 [4] was “no binding (tested: 3 ug immobilized GST-32)” throughout.
